Results taken from patent US20120316071A1 (published 2012).

Tests used:
[1] = target: T1, rHuman Notch-1/Fc Chimera, CF (R&D Systems Cat#3647-TK) (human, UniProt P46531 19-526); experiment: ECL Multispot (MSD), antigen spotted on plate, 10 nM Fab; blank spot of this well 306
T1 construct: Bought recombinant protein; the chimera holds only a part of it; not shown: Fc portion of the purchased chimera

[2] = target: T2, rHuman P-Cadherin/Fc Chimera, CF (R&D Systems Cat#861-PC) (human, UniProt P22223 108-654); experiment: as above
T2 construct: Bought recombinant protein; not shown: Fc portion of the purchased chimera

[3] = target: T3, rHuman EGF R/Fc Chimera, CF (R&D Systems Cat#344-ER) (human, UniProt P00533 25-645); experiment: as above
T3 construct: Bought recombinant protein; also called epidermal growth factor receptor; not shown: Fc portion of the purchased chimera

[4] = target: T4, rHuman Erythropoietin R/Fc Chimera, CF (R&D Systems Cat#963-ER) (human, UniProt P19235 25-250); experiment: as above
T4 construct: Bought recombinant protein; also called EPO R; EPO R/Fc; not shown: Fc portion of the purchased chimera
T4 sequence (looked up): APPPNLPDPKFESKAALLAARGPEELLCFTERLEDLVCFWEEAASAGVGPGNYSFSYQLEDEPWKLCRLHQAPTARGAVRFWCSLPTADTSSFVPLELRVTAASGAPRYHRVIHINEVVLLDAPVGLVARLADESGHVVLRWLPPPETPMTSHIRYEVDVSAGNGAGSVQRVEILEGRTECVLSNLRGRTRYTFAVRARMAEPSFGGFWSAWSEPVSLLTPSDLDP

[5] = target: T5, rHuman ErbB2/Fc Chimera, CF (R&D Systems Cat#1129-ER) (human, UniProt P04626 23-652); experiment: as above
T5 construct: Bought recombinant protein; also called human epidermal growth factor 2 receptor; not shown: Fc portion of the purchased chimera

[6] = target: T6, rHuman IGF-1 sR, CF (R&D Systems Cat#391-GR) (human, UniProt P08069 31-932); experiment: as above
T6 construct: Bought recombinant soluble receptor; The column head prints only 'IGF-1'; also called insulin-like growth factor-1 soluble receptor

[7] = target: T7, rHuman CD44/Fc Chimera, CF (R&D Systems Cat#3660-CD) (human, UniProt P16070 21-220); experiment: as above
T7 construct: Bought recombinant protein; not shown: Fc portion of the purchased chimera

[8] = target: T8, rHuman HGF R/c-MET/Fc Chimera, CF (R&D Systems Cat#358-MT/CF) (human, UniProt P08581 25-932); experiment: as above
T8 construct: Bought recombinant protein; also called HGF R/Fc; hepatocyte growth factor receptor; not shown: Fc portion of the purchased chimera

[9] = target: T1, rHuman Notch-1/Fc Chimera, CF (R&D …); experiment: ECL Multispot (MSD), antigen spotted on plate, 10 nM Fab; blank spot of this well 214
[10] = target: T2, rHuman P-Cadherin/Fc Chimera, CF (R&D …); experiment: as above
[11] = target: T3, rHuman EGF R/Fc Chimera, CF (R&D …); experiment: as above
[12] = target: T4, rHuman Erythropoietin R/Fc Chimera, CF …; experiment: as above
[13] = target: T5, rHuman ErbB2/Fc Chimera, CF (R&D …); experiment: as above
[14] = target: T6, rHuman IGF-1 sR, CF (R&D Systems …); experiment: as above
[15] = target: T7, rHuman CD44/Fc Chimera, CF (R&D Systems …); experiment: as above
[16] = target: T8, rHuman HGF R/c-MET/Fc Chimera, CF (R&D …); experiment: as above
[17] = target: T9, rHuman CD44/Fc Chimera, CF (R&D Systems Cat#3660-CD) (human, UniProt P16070 21-220); experiment: ECL Multispot (MSD), 10 nM Fab; blank 219
T9 construct: Bought reagent; Fc part of the bought chimera not given

[18] = target: T10, rHuman IGF-1 sR, CF (R&D Systems Cat#391-GR) (human, UniProt P08069 31-932); experiment: ECL Multispot (MSD), 10 nM Fab; blank 219
T10 construct: Bought soluble receptor; also called insulin-like growth factor-1 soluble receptor

[19] = target: T11, rHuman P-Cadherin/Fc Chimera, CF (R&D Systems Cat#861-PC) (human, UniProt P22223 108-654); experiment: ECL Multispot (MSD), 10 nM Fab; blank 219
T11 construct: Bought reagent; Fc part of the bought chimera not given

[20] = target: T12, rHuman EGF R/Fc Chimera, CF (R&D Systems Cat#344-ER) (human, UniProt P00533 25-645); experiment: ECL Multispot (MSD), 10 nM Fab; blank 219
T12 construct: Bought reagent; also called epidermal growth factor receptor; Fc part of the bought chimera not given

[21] = target: T13, rHuman ErbB2/Fc Chimera, CF (R&D Systems Cat#1129-ER) (human, UniProt P04626 23-652); experiment: ECL Multispot (MSD), 10 nM Fab; blank 219
T13 construct: Bought reagent; also called human epidermal growth factor 2 receptor; Fc part of the bought chimera not given

[22] = target: T14, rHuman Notch-1/Fc Chimera, CF (R&D Systems Cat#3647-TK) (human, UniProt P46531 19-526); experiment: ECL Multispot (MSD), 10 nM Fab; blank 219
T14 construct: Bought reagent; Fc part of the bought chimera not given

[23] = target: T15, rHuman Erythropoietin R/Fc Chimera, CF (R&D Systems Cat#963-ER) (human, UniProt P19235 25-250); experiment: ECL Multispot (MSD), 10 nM Fab; blank 219
T15 construct: Bought reagent; also called EPO R; EPO R/Fc; Fc part of the bought chimera not given
T15 sequence (looked up): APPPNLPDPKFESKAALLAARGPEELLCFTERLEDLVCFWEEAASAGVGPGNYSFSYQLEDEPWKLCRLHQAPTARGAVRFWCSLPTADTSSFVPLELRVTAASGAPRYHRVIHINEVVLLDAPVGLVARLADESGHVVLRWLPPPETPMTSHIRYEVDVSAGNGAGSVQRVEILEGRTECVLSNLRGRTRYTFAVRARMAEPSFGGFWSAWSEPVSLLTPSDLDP

[24] = target: T16, rHuman HGF R/c-MET/Fc Chimera, CF (R&D Systems Cat#358-MT/CF) (human, UniProt P08581 25-932); experiment: ECL Multispot (MSD), 10 nM Fab; blank 219
T16 construct: Bought reagent; also called HGF R/Fc; hepatocyte growth factor receptor; Fc part of the bought chimera not given

B1: Fab VH1-46_IGHD6-6*01_IGHJ1*01 S102A/S103P/S104F (APF) & L6_IGKJ1*01 (Fab, V domains shown)
VH: QVQLVQSGAEVKKPGASVKVSCKASGYTFTSYYMHWVRQAPGQGLEWMGIINPSGGSTSYAQKFQGRVTMTRDTSTSTVYMELSSLRSEDTAVYYCAREEYAPFSAEYFQHWGQGTLVTVSS
VL: not shown
notes: Tested as a Fab expressed in E. coli: the heavy chain from Plasmid A (CH1, His6 and Flag tags), the kappa light chain from Plasmid C (CL kappa); also called H:APF & L:wt; APF triple mutant
- ECL signal [1]: 370
- ECL signal [2]: 422
- ECL signal [3]: 277
- ECL signal [4]: 312
- ECL signal [5]: 378
- ECL signal [6]: 207
- ECL signal [7]: 262
- ECL signal [8]: 317
- ECL signal [9]: 189
- ECL signal [10]: 152
- ECL signal [11]: 138
- ECL signal [12]: 179
- ECL signal [13]: 202
- ECL signal [14]: 190
- ECL signal [15]: 199
- ECL signal [16]: 190

B2: Fab VH1-46_IGHD6-6*01_IGHJ1*01 S102A/S103P/S104F A106E & L6_IGKJ1*01 (Fab, V domains shown)
VH: QVQLVQSGAEVKKPGASVKVSCKASGYTFTSYYMHWVRQAPGQGLEWMGIINPSGGSTSYAQKFQGRVTMTRDTSTSTVYMELSSLRSEDTAVYYCAREEYAPFSEEYFQHWGQGTLVTVSS
VL: not shown
notes: Tested as a Fab (CH1 with His6/Flag tags, kappa CL); also called APF A106E
- ECL signal [17]: 192
- ECL signal [18]: 312
- ECL signal [19]: 308
- ECL signal [20]: 226
- ECL signal [21]: 189
- ECL signal [22]: 156
- ECL signal [23]: 204
- ECL signal [24]: 212
